# Results from the DeepSol protein solubility set.
# Assay: soluble on expression in E. coli; label from the status in PepcDB or PDB records
row,Sequence,soluble on expression in E. coli
1,MSQPPLLSGPGGRLLGAALLIGLLAGCGSVSTGNAGSGTVGTSTTSRADVMTFQPSSLPVSYVGETYNVQVGVTGGVGPYGYRLTAGTLPPGLKFAGGALSGTPTKAGSYSFAIQATDANLSTRVQEYTMNVDALPPLALKPTLPPGEIRGETRIPVTIQAPRAVRAARLSWDLGKDVQVTRVQPADAGSVVFWQQRGSVLTVDLGFRTVPRPDARIALITVKPAKAVTLKADALGYEARDGSGKMLVDKKRPGSEPVKPAEQPGDPKVDPKAADQKATDQKATDPKTVDPKTVTPADTVEGGPLPSPALPTPSLPPTLPPVTTPPANTPPVPTPTPPANQPAPAPAPQPAPAPQPTPPSGTGGALEHHHHHH,soluble
2,VKVRYENDKYLIPFASLDANQRMEFDLKDPQGKVILLAGKKLTSRKIKELKENHLEWVEYPMDILLNRHLAEPVMVGKEVLLDMLTQLDKNKLEKIHDLG,not soluble
3,MSLSAELLTSRDQQNFVVRATRADDVTIDVTSEAKWSVGDEKIVKLQGTTLLPAADGETKLTIEYSGFKSEVPVKVEQAGAERAVSFKQDVMPVFMRSGCNTGSCHGAARGKDGFRLSLFGFDPNGDYDRVTRELAARRINLAVPEASLLMEKAIGSVPHTGGKLFDQDSEYYSTLLRWLETGAQRDASEPPLCEKIEIYPPKAVLEGEGAKQQFIVKGFYADGTTRDITDLAVFLTSNDNSVPVGKDGMAVAANRGEAFVMARFDTHTVGSQVIVLPKDLNYEKPAIEGNYIDKLVGAKLHKLRITPSGLCTDEEYLRRVTIDITGQLPSEEEYAEFMADQSADKRVKLVDRLLERKEFAEIWAMKWAQLLMIKSENNRVSYKSAFLYNSWLQEKIANGVPLDEMVREMLGATGGTFSNPPTNFYEIERDTLKTAENVAQVFMGIRTQCAQCHNHPFDRWTMDDYYSFAAFFAQVGRKNAEDEREGHHHHHH,not soluble
4,MGSDKIHHHHHHMALEDLVILLVEDDPVFRSIVAAFLTNRGATVIEADDGQQGLERFSQHDFDIVLADLSMPILGGLDMLKQMIKRKPDTLSIVISGNQVMADVVEALRVGASDYLVKPVNDLCLIENAIRQCVGGSSQQDVQLEDLDELSYQELEEHLNLLEQNAEAAKSVQQQLFPPSVIDYPKAKIDYSLFKHDEVSAYFIDSVNVGERYLIMYMAHFHPQDNRCAFASVLLKSFVNQKLKQFRNDNTETVIEPFNMLSYLNERMSKSGLDIYVDIVYAVVELTHYRASIAQAGKGLRCYIRNEEGLMPLAMPDALQLGILEWGQPSTQFRNLMPGESLCVASSNIEHRDMLLNDEFVGLSYSPEVAPGGYVQMSF,not soluble
5,MPSVISTDVLIVGAGVAGLWLNARLRRQGFSTVLVESASLGGGQSLKSQGIIHGGAKYALHGALSGASEAIADMPRRWREALDGKGELDLSGVRLLSEAHYLWSPGTIAGNLTSFFASKAVRGRVDQVKGEQLPPALQNPKFKGKVYRLAELVVDVPSLIKRLAELAEDSLLAGQKIEPLYEADELIGLRVDGRDIHAQRIVLSAGGGTADLLNALGVSQPQMQRRPLHMVLVKGPTLKPLFAHCLGGGPKPRITVTTHPAADGQCVWYLGGDLAEADGVAREPDAQIAVARKELEALLPWVDLSQAQWATLRVDRAEPAQSGLVRPDNAFLDSQRRLMVGWPTKLALAPDFADRVLSHLSKDDIHPTPQAPLVDVPRPPLAIPVWDELLPLEHHHHHH,not soluble
6,MGSDKIHHHHHHYQQQYKMAVHVTPESENDPEWPSKKKWFDASEWLSTPQYIKINDFYVINTRYVPIGDLNSDQIIFYLKKGINGSEKRFSELSVLSDLDNQEFRELMKDKLSSEYLETQFEKETLTPTIDFFLIYFIYNNKRYEVPIRREYSGNKYHYWVLEGSVKKAGYWHERFPTSYSYRKYLNK,not soluble
7,MGSDKIHHHHHHMSIVLKAIRFHRETDLFTDLNFEFPTGALTVLTGDSGSGKSTLLSLIAGYAAMPYEGTILLNGHDDRNAAMQVKAQHVGMMFQNPDQQFTMRTLSGELSFALENLNLPVAEIQRRFAQAVALGETQALLDRDLSTLSGGEKQRAALTVLLAMDAPILLLDEPFASIDPTSRHLLIGKLGTLRDHGKTIVIAEHDLTDYADVADQLVALKNGELSRLPLATLTTLPTHFNLTQPRQATNKIFHLENVVCQQNHHILLQAPSWDFNDGITTLTGANGSGKSTLLRSMVQRHPYQGRMFLGQQRLRRRKRLYQTMTLAVQDAAKQFVTLTLADELAFGPALPAAVREKQQAALAYLGLAEKQTTSLYQLSEGQKKMVQLMTMLSLDLSFLLLDEPFSGLDDRACQYFAAWIKAKSATQAFLIVTHRLAPLAGISQQQVLLANHRLQVVQG,not soluble
8,MAFLPLYIPKGRRLKIVIVGGGYAGIAALVTLHRYSPDAEITLIDPGIDHLKITHLHETFRYPLSDFLVPYAFLEQRFGCRHIRSALAVDESMLCQWQRDRYLQVDDQQVPFDYLLVASGARSFTRNETDERTAADAENIVRLENFFTVSGADLLDRFLATQDRAGNTAPSCISVVGGGATGIQFLFELAGYLRRRRINHGLQLVDDNERVLQRYPGGFARYVEMRMLELDIEFYPGVCFLEQRADTVLLEDKTSGRHFELPSVLSLVFTGNRQDNLIKTNAFGQVMVDGKPLGNIFAAGDCSVYPSLGSNTMTAQSAVRKGKLAARNILRHSGVLKVLEPYLHHDLGYVVSLGPEDAVGWLAVENNVVTGVPALAIKEIVEAQYDLLLSGVDTYLVLEHHHHHH,not soluble
9,MESTLQIMPVQRTSRNFGEYAEEAVIIEEPIIKQKRPLFIEANTIEASLEHLRNDCIIPVFAKDNEATLSHVAFIEAVQDATNTFFSGEQIESPDIRVSHVIKGRIPEAIHKPANQLLESDKTIYYERCAFVIEVPTIYETVHGNRLTLTIGGVRAYNHTNLYSKKGAERFKVFIGFTCKVCTNLCVSTDGYLSCLEVTNTRDLYQAVLEMFHKYDAAKHIHLMQSLGNTSMTEHQFCQLLGRMRLYQSLPQGYQKDIPKMLLTDTQVNNVARAYINDENFGSLGNDLSMWKLYNLLTGANKSSYIDSFLDRAYNATELATGICSALHGDNKYQWFLS,not soluble
10,MGSDKIHHHHHHMDASKNSDFKDTWLVVPCYNEATVIREVLENALKTFPNIVAVNDGSPDNSAEEIHAAGAHLVNHPVNLGQGAAIQTGIEYARKQPGAKYFVTFDADGQHQVKDVIRMVERLRAEDVDIIVGTRFGRPRQADDQVPLIKRLVLRTVVLLSPKTRRLGLTDAHNGLRVFNQKVAQEMNIRMNGMSHASEIVDQIDERGWRISEEPVDILYTEYSMSKGQSLLNGVNILADGFLARRLP,not soluble
11,NFDTNMFKLENYVKEKYSLESLEIIPNEFDDTPTILSERISQVAAGVLRNLIDDNMKIGFSWGKSLSNLVDLIHSKSVRNVHFYPLAGGPSHIHAKYHVNTLIYEMSRKFHGECTFMNATIVQENKLLADGILQSRYFENLKNSWKDLDIAVVGIGDFSNKGKHQWLDMLTEDDFKELTKVKTVGEICCRFFDSKGKEVYENLQERTIAISLEDLKNIPQSLAVAYGDTKVSSILSVLRANLVNHLITDKNTILKVLEEDGDL,soluble
12,MVPESHPRYKSLLNRDRIVEAFESGVLAKGGMIAHGRGETFDYLIGESTTDAALNSIKVSAALLVLAENPVISVNGNSVALAKDEFVELAKELNGKIEVNLFYRTTEREEKIKDVFESDINGGIVLLGIDNADKQIPGIDHLRGKVSESGIYTSDVVLVPLEDGDRAEALVKMGKTVIAIDLNPLSRTARKSTISIIDELTRCIPLITEYVREYKKMDRAELLKIVENYDNEENLRNILNLISKRLTSVDLEHHHHHH,soluble
13,SLKITDDCINCDVCEPECPNGAISQGEEIYVIDPNLCTECVGHYDEPQCQQVCPVDCIPLDDANVESKDQLMEKYRKITGKA,soluble
14,MGSDKIHHHHHHEHKDLCYDHPHFATVRVVFDWTKISNHDKPEGMRVVFYPTDDESNTWIFDFPGGEDGEVELPENDYRVICFNYDTDGMVWKENGSYTLFTADTRDVRSPDNQTMAVTPPWLCGDHIDRVILKDIPEGSTKIIRLTPVNMVCHYTYEVNGIRGLDRVADLRAALSGMSGSLNMSGDSLPADLSESLLFDGMVSRNQIIGGFYTFGHSALEGEPNVFRLYLKNRSGSMSVLEQDVSDQVHDVPVAGHIGDVHLVLNFDYEVPSEPGSGGPGFDVDVDDWDDVNVDIVL,not soluble
15,SSTWLSEAEMIALAGLLQMSQGEQTPNCVASSLPSTSCPDPVSVSEDPGPSGDQSCSGTDT,soluble
16,DIELTQSPASLSVATGEKVTIRCMTSTDIDDDMNWYQQKPGEPPKFLISEGNTLRPGVPSRFSSSGTGTDFVFTIENTLSEDVGDYYCLQSFNVPLTFGCGTKLEIK,soluble
17,MAMAKARKPREALLWALSDLEENDFKKLKFYLRDMTLSEGQPPLARGELEGLIPVDLAELLISKYGEKEAVKVVLKGLKVMNLLELVDQLSHICLHDYREVYREHVRCLEEWQEAGVNGRYNQVLLVAKPSSESPESLACPFPEQELESVTVEALFDSGEKPSLAPSLVVLQGSAGTGKTTLARKMVLDWATGTLYPGRFDYVFYVSCKEVVLLLESKLEQLLFWCCGDNQAPVTEILRQPERLLFILDGFDELQRPFEEKLKKRGLSPKESLLHLLIRRHTLPTCSLLITTRPLALRNLEPLLKQARHVHILGFSEEERARYFSSYFTDEKQADRAFDIVQKNDILYKACQVPGICWVVCSWLQGQMERGKVVLETPRNSTDIFMAYVSTFLPPDDDGGCSELSRHRVLRSLCSLAAEGIQHQRFLFEEAELRKHNLDGPRLAAFLSSNDYQLGLAIKKFYSFRHISFQDFFHAMSYLVKEDQSRLGKESRREVQRLLEVKEQEGNDEMTLTMQFLLDISKKDSFSNLELKFCFRISPCLAQDLKHFKEQMESMKHNRTWDLEFSLYEAKIKNLVKVKFLKGKSEERMKETLP,soluble
18,MDDDILGLEDVTASEAFKIIYELSKASKIDADRSDAAKAQFTLLHSTLLQALQAERDLLDQAKALKRQKEEQEAAITGAGGVPGADDIDQLREDVEAALGEAALAQERQQLLQLEVTDLQRQRNDLGARMEELAAEHAAALQPVIAQARGEAAALVDELDEERRRVEAAHGELEDMKSKLAAVQEEIEAMGETKAVERANLVKVDPLPDKARRQSEAVAAILKSVQGQLESMNARYGEHDTQYKTAAEREQQLTEEHTKMLTALERGRVQVESKARHADDVRKDVELASIEADKILADQVELDLRVKNLALELKAESDHLNRRQREKELMLRQYRVADQQLKDARDMLPNLKFQVEQMHRDVNTLEARRRAQSRELSDVKRELDIQMAAFLHEEADGKEKVALFQLTYKEVAALEAELAALKREEAERDTILRDLGSQRDRVALAIAQKLSKVKDVQMTSRIKEVELAELKKIRKEVGRRIRDFEKLYDLVKNQRNKFVNLIQAASQSTTEMKDKLKVLQNELDILQNEVGIKDKLLQQQHTQHAANIAERDQLRVELGRLGMVFRDKQAVVDEQIAEVDKLNAIINGCEKEMLRLKKQYELVIEARNYTGIMLIDRNDELCVLYEKANILDEVIKSGQLELMRREDEARLLRLEVGELERSIGVTRRLVPSVPLLDNDVAALQKALFEARREAEALSLALENPSNQGRWRLLEGKIPDREELSAKIQALEERLNDKKEQLLEKELILEEITSLSDKLRVQAAEGRADTLELAQRVNEYQSKLRAVTRKIMATVSELSMYQASALKLGAEKEELEGAVSLASQRLEAGEPPTDDAEREWYRLERERHTVDAMAEERRAVAAALDARVAEVQSTAEPRPNAYIPEQLGIPKPYGSFAPFKPQEAGSTMRHIRKPSPKEVVI,not soluble
